In the RNAGym collection of RNA variant scans (doi:10.1073/pnas.2313332121):

B1: TPR t1 (parent)
chain: GACCAAUCUGCCCUCAGAGCUCGAGAACAUCUUCGGAUGCAGAGGAGGCAGGCUUCGGUGGCGCGAUAGCGCCAACGUCCUCAACCUCCAAUGCAUCCCACCACAUGAUGAUGCCUGAAGAGCCUUGGUUUUUUG

Variants of: B1
Test: polymerase ribozyme fitness, log enrichment relative to wild type (log ratio); higher = more active; in vitro selection for triplet polymerase activity
Summary of the method: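 Mutant libraries were PCR-built and transcribed for each subunit of a heterodimeric triplet polymerase ribozyme and selected for one round in triplicate at −7 °C, frozen, before gel excision of extended constructs and streptavidin-bead capture. Input and output libraries were Illumina-sequenced, keeping genotypes with ≥10 input reads and ≥1 read per output. Fitness is a logarithmic ratio of genotype to wild-type enrichment, in base 2, using inverse-variance-weighted replicate averages.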

| Variant | polymerase ribozyme fitness (log ratio) |
| --- | --- |
| C56A C80G | -2.82 |
| A24U U38G C114A U126G U132A | -6.67 |
| C49U C97G | -5.89 |
| G117U A121C | -2.4 |
| C4U A6U A91U G113U | -3.89 |
| G110A U125A | -2.43 |
| U7G C40G A50U | -0.282 |
| G71A A111G G120U | -2.5 |
| U129C U132A | -0.43 |
| A6G C12A C56A C72A | -1.87 |
| U59G C114A | -1.42 |
| G10A A27G C76U C94A | -5.09 |
| A27U C56A C70U U96A | -5.71 |
| G71A C79G C124G U125A | -3.71 |
| A41U G45A U55C | -1.85 |
| U78C A83C G113U | -3.26 |
| C28U U92C | -3.43 |
| G44A C72U A84U | -1.47 |
| A29U G117A | -3.25 |
| G39U G117A | -2.1 |
| C13G C49A | -1.26 |
| C70A A105G | -4.48 |
| C3U G93U | -1.95 |
| A29C C73U U96A | -5.54 |

| Variant | polymerase ribozyme fitness (log ratio) |
| --- | --- |
| A18G A43C C53A G63U | -5.8 |
| C53G U96C U106A A119G U133A | 1.61 |
| C15U G58A G61U | -1.4 |
| C15A U59A C101A | -3.37 |
| C12U G48A C56G C72U | -1.47 |
| C98A A121U | -2.52 |
| G23U G71C C94U C115U | -6.24 |
| A5C U96A A121C | 0.399 |
| C13G C49A G60A C64U U96A U106G G110A U132C | -6.52 |
| C12U G44A | -0.615 |
| G52A G61A G127U | -1.95 |
| C4U G63C C76A A91C A100C C115G C123A | -4.89 |
| U92G G110A | -5.46 |
| C8U C40A C86A U130C | -2 |
| C34A A50U G61U | -3.7 |
| G10A G35A G77A | -5.04 |
| A6C U7A C8G C13A G42C C72A C76G | -2.51 |
| C73A G110C U125A U129A | -6.92 |
| C8U G10U A27U U59C | -3.06 |
| U21G C97G U112G | -5.7 |
| A5C G17A A41G C53A C56A C70U G71A U112C | -6.41 |
| C15U C49U U55G C73U | -1.56 |
| C62G C114U U116A | -5.69 |
| U33G C49G G58C A121C | -6.04 |

| Variant | polymerase ribozyme fitness (log ratio) |
| --- | --- |
| G71U U112G | -0.608 |
| U30C G113C | -3.49 |
| A6U G10A C15U A46C C53G G61U C79A C80U C115G A119G | -4.07 |
| G39A G71C G93U C104U C123A | -3.19 |
| U33A U112C G122C | -2.34 |
| G47A U81G C82U C86G | -1.44 |
| G61A C88G G110A | -1.26 |
| A41U C49U U109A U130G | -6.38 |
| C94U C102G | -6.09 |
| C4A A5G A111C | -0.259 |
| G42C G63A G93C G113U | -5.92 |
| U9A A46C A50C G61U C82G | -1.26 |
| C13U C64A | -6 |
| G63A G127C | -1.62 |
| C70U C89U | -1.12 |
| A37U G52U C64U C123A C124A | 0.273 |
| C49G C73A C85U C89A | -2.43 |
| C20A C86A U112A U125G U126G | -1.97 |
| C12A G57A G60A | -0.307 |
| C82A C102A C114U | -4.27 |
| C13A G57C C85A | -1.99 |
| A26U C70U C114U | -7.55 |
| C8G C56U C97U | 0.547 |
| C94A C97U G120U | -1.04 |

| Variant | polymerase ribozyme fitness (log ratio) |
| --- | --- |
| C22G G44U U109G G110C | -5.8 |
| C49U C94U A111U | -5.05 |
| U7C C73A C101U | 0.14 |
| A18G U129A | -4.53 |
| G17U U78C C114G | -5.37 |
| G39A A118U | 0.354 |
| C22U A90G | -4.43 |
| U30G G60C C124U | -5.4 |
| C11G C12U C53U U54A C86U A90G U96A C101U | -2.39 |
| G23A U112A | -4.45 |
| C11A G120A | 0.576 |
| C8U C28U C56A U87G A119G U130C | -1.12 |
| C99U C114A | -4.84 |
| G71A U125A | -0.783 |
| C13A G48A G69A C114U U129A | -6.99 |
| G69U G107C | -4.24 |
| A50U C56U C73U A83C | -1.69 |
| C13U G93U | -0.472 |
| C40U C62A | -1.61 |
| C13U G52C G60A A95G C98U U126G | -4.8 |
| C64U G120C | 0.769 |
| C12U C40U G57A G63U C88G A90G | -5.54 |
| A50C C70A C82G A84C | -2.37 |
| A37U C72A C73U G117U C124A | -1.66 |

| Variant | polymerase ribozyme fitness (log ratio) |
| --- | --- |
| C15A G122A | -1.85 |
| A50G C53A C72A | -0.193 |
| U7G U14A C56U U78C A84C C101A | -1.53 |
| C8U G44A C101U U116C | -1.58 |
| C49G G71A U112A | -1.11 |
| U7A C11A G117A | -2.2 |
| A2U C56A G63U U106A C115G | -6.59 |
| G122U C124U | 0.953 |
| U14G C15U C20G C70U C123A | -5.25 |
| C49A G93U U112G | -1.59 |
| G36U G39C | -1.56 |
| A6C C13U A37C G69U C98G | -4.9 |
| C11G G36A G63C | -1.16 |
| C64U G127U | -0.401 |
| A43G A121G U129A | -0.572 |
| U7G G10A G45U U96G G117U | -2.43 |
| A18U U112G | -2.46 |
| C3A U33A C86A U112G | -6.24 |
| G63A G93C G113U | -5.1 |
| C49U A50G C70A | -4.55 |
| A43U C62G U112G G113C G122U | -6.69 |
| G69C A105U U112G | -3.4 |
| C64G C72U | -6.14 |
| C62A A118U | -1.56 |

| Variant | polymerase ribozyme fitness (log ratio) |
| --- | --- |
| G52A C56U U59G C114U C124A G135C | -0.522 |
| G69A C86U A111C | -3.32 |
| C40A C101U | -1.61 |
| A2G C28U | -2.27 |
| G17A A27C G57C C73A G93U G113C A118C U125A | -7.69 |
| C15G G63U U96A C99U G117U | -5.62 |
| U9A C53U C123G | 1.66 |
| C64U A95G C115G | -2.07 |
| G44A C62A C88U C89U G128C U129G | -2.95 |
| C12A C20U | -0.43 |
| A50U C101U A105U A121U U130C | -2.62 |
| C40U G69C G93A U96G | -2.24 |
| C22G G69A C79A | -5.64 |
| C28G U32G C62A A121C | -6.19 |
| G19C C22G C72U | -4.44 |
| C22G G52U C73U A95C | -5.41 |
| G42A A66G C70U C89A U132A | -5.56 |
| C13U G60C G93A G110A U130A | -3.35 |
| U81C C82G G113C C115G A118G | -7.41 |
| A18U A90C G120A | -0.842 |
| C8G A16G A90C U96C U112A | 0.488 |
| C28G G58C C94A | -3.94 |
| G42A G47U G57U G58U | -3.58 |
| C34A A41U G61C G120U | -6.86 |

| Variant | polymerase ribozyme fitness (log ratio) |
| --- | --- |
| A2G G47A C72G | -0.743 |
| C12U G44A U131A | -1.07 |
| U9C C40U A43G C49G U96G A119G U131A | -3.12 |
| A27G A100U G120U | -3.21 |
| C4G A41U | -2.07 |
| C22G G35C | -5.43 |
| A37C A43C C53A G71C C86U A91C | -6.26 |
| G44C G120C | -0.584 |
| U14G C56U C70A A83C C104G G110A U116A | -5.43 |
| C13G A29C U54A A105C U106A | -3.03 |
| C3U C12A U21C G36A G63U | -3.34 |
| G39U A46G U78A C89U A95U C97U | -2.4 |
| G39A A43U C72G | -1.83 |
| U33C U38G | -4.8 |
| U96A G117U | -3.63 |
| U106G U133G | -0.611 |
| G42U G71A A100U | -4.8 |
| C3A U7A A121G | 1.21 |
| C40U G42A C56U C80U G120U U132C | -3.64 |
| C15A G52C G63U G93U C97U | -5.64 |
| C4U U96A | -1.6 |
| C72U A91G | -1.21 |
| U38C C70A | -1.91 |
